The text below walks through data of patent US20240190915A1 (KLINIKUM RECHTS DER ISAR DER TECHNISCHEN UNIVERSIT T M NCHEN, published 2024).

The target of assay [1] is T1, AGR2 (human, endogenous in PDAC cells) (human, UniProt O95994 21-175, limits assumed).
T1 construct: Endogenous protein co-immunoprecipitated from Capan2 cell lysate
T1 sequence (looked up): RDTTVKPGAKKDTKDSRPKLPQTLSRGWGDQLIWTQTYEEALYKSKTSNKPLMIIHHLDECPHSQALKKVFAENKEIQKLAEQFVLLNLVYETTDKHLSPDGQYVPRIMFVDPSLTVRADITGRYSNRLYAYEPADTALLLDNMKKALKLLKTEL
As to the kind of experiment: co-IP competition in PDAC cells, dose-dependent inhibition of POLR2A-AGR2 binding.

For assay [2], the target named is T1, AGR2 (human, endogenous in PDAC cells). Briefly: co-IP competition in Capan2 cells (FIG. 5B).
Assay [3] deals with Polr2a (mouse, endogenous) (mouse, UniProt P08775 1-1970). Briefly: co-IP, endogenous proteins, mouse pancreatic tissue.

B1: hexapeptide PTTIYY (SEQ ID NO:4) (peptide)
peptide: PTTIYY
notes: Synthetic, previously described peptide used as positive control; liposome-encapsulated form; also called bioactive hexapeptide; positive control
As to B1, the binding result in assay [1] was “binds”.

B2: hexapeptide NTAIYY (SEQ ID NO:2) (peptide)
peptide: NTAIYY
notes: also called bioactive hexapeptide
As to B2, the binding result in assay [2] is reported as “binds”.

B3: Agr2 (mouse, endogenous) (other)
chain: KDTTVKSGAKKDPKDSRPKLPQTLSRGWGDQLIWTQTYEEALYRSKTSNRPLMVIHHLDECPHSQALKKVFAEHKEIQKLAEQFVLLNLVYETTDKHLSPDGQYVPRIVFVDPSLTVRADITGRYSNRLYAYEPSDTALLYDNMKKALKLLKTEL
notes: Endogenous protein co-immunoprecipitated from mouse pancreatic tissue lysate
Take B3: the binding result in assay [3] is “binds”.
